Results on four molecules are retold here after US10954275.

Experiment [1] addresses AlexaFluor 647-conjugated human IgG (Jackson Immuno Research) (human). As to the kind of experiment: flow cytometry on yeast-displayed PrG with labelled human IgG at pH 5.6 and pH 8.2 (FIG. 6).
For experiment [2] the target is unchanged. The experiment can be described thus: flow cytometry, IgG titration on yeast-displayed PrG, pH 8.2 against pH 5.6.
Experiment [3] has the same target. The experiment can be described thus: flow cytometry, titration of AlexaFluor 647 human IgG on yeast-displayed PrG, pH 5.6.
Experiment [4] shares this target. As to the kind of experiment: flow cytometry on yeast-displayed PrG, ~200 nM IgG, pH 8.2.
Experiment [5] shares this target. The experiment can be described thus: flow cytometry, titration of AlexaFluor 647 human IgG on yeast-displayed PrG, pH 8.2.
The target is the same in experiment [6]. The experiment can be described thus: flow cytometry on yeast-displayed PrG, ~200 nM IgG, pH 5.6.
Experiment [7] has the same target. As to the kind of experiment: flow cytometry on yeast-displayed PrG with labelled human IgG (FIG. 6), against WT PrG.

B1: Protein G EHHE C2 domain (PrG-EHHE; A24E, K28H, V29H, N35E), displayed on the yeast cell surface (designed binder, not shown: large carriers)
chain: TTYKLVINGKTLKGETTTEAVDAETAEHHFKQYAEDNGVDGEWTYDDATKTFTVTE
On to B1, for which, in experiment [1], the fold increase of the pH dependent switch was over 2 fold. The molecule further displayed a fold change in binding constant, pH 5.6 to pH 8.2 in experiment [2] of 40 fold. Moreover, the Kd in experiment [3] is 27 nM; in experiment [5], 1170 nM. The Percent IgG bound at IgG concentration of ~200 nM in experiment [4] worked out at 10%; in experiment [6], 80%.

B2: Protein G EHH C2 domain (PrG-EHH; A24E, K28H, V29H), displayed on the yeast cell surface (designed binder, not shown: large carriers)
chain: TTYKLVINGKTLKGETTTEAVDAETAEHHFKQYANDNGVDGEWTYDDATKTFTVTE
As for B2, in experiment [7], the fold increase of IgG binding affinity was over 4 fold.

B3: Protein G EHHD C2 domain (PrG-EHHD; A24E, K28H, V29H, N35D), displayed on the yeast cell surface (designed binder, not shown: large carriers)
chain: TTYKLVINGKTLKGETTTEAVDAETAEHHFKQYADDNGVDGEWTYDDATKTFTVTE
Consider B3, for which the fold change in binding constant, pH 5.6 to pH 8.2 in experiment [2] stood at 20 fold. In addition, the equilibrium dissociation constant (Kd) came to 96 nM in experiment [3] and 1780 nM in experiment [5]. Besides, the values for the Percent IgG bound at IgG concentration of ~200 nM in experiment [4] and in experiment [6] were 7% and 65%, respectively.

B4: Protein G ERH C2 domain (PrG-ERH; A24E, K28R, V29H), displayed on the yeast cell surface (designed binder, not shown: large carriers)
chain: TTYKLVINGKTLKGETTTEAVDAETAERHFKQYANDNGVDGEWTYDDATKTFTVTE
B4 yielded a fold increase of IgG binding affinity in experiment [7] of over 4 fold.
